Results published in patent publication CN111378038A (UNIV FUDAN, dated 2020).

Columns and labels:
PD-1(ECD)-hFc融合蛋白 [1] = target: T1, PD-1(ECD)-hFc融合蛋白 (human, UniProt Q15116 25-170); assay: ELISA, PD-1(ECD)-hFc coated, serially diluted antibody, HRP-anti-Fab detection; reference: P2-G12 Fab
T1 construct: extracellular domain; It was biotin-labelled for the panning and coated on the plate in the ELISA; also called PD-1(ECD)-hFc蛋白; PD-1蛋白; not shown: hFc (human Fc)

[2] = target: T2, 人全长PD-1蛋白 (过表达于HEK293T细胞) (human, UniProt Q15116 25-288); assay: flow cytometry on HEK293T cells overexpressing human full-length PD-1, anti-human IgG1-FITC detection
T2 construct: whole, on cells; also called 过表达PD-1的HEK293T细胞

PD-1(ECD)-hFc融合蛋白 [3] = target: T1, PD-1(ECD)-hFc融合蛋白; assay: ELISA, PD-1(ECD)-hFc coated, serially diluted antibody, HRP-anti-Fab detection

T2 sequence (Q15116 25-288): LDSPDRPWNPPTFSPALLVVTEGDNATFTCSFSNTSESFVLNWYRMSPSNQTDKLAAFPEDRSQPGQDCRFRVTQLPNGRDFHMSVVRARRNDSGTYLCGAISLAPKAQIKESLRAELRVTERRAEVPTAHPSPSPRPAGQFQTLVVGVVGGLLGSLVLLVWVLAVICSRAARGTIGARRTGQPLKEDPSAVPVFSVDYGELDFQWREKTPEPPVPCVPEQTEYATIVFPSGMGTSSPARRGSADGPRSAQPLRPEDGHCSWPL
T1 sequence (Q15116 25-170): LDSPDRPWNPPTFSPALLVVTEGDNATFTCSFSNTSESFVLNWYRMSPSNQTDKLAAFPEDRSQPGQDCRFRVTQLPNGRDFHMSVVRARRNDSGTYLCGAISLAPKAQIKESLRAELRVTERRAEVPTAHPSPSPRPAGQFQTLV

B1: P2-G12 IgG1 (antibody, V domains shown)
VH: EVQLVQSGGGLVQPGGSLRLSCAASGFTFSSYSMNWVRQAPGKGLEWVSAISGSGGSTYYADSVKGRFTISRDNSKNTLYLQMNSLRAEDTAVYYCARDPYGSGSYYRGDAFDIWGQGTMVTVSS
VL: ELTQPPSVSVAPGKTARITCGGNNIGSKSVHWYQQKPGQAPVLAIYYDSDRPSGIPERFSGSNSGNTATLTISRVEVGDEADYYCQVWDSVSDVVFGGGTKLTVL
notes: also called 单克隆抗体P2-G12
B1 was tested, and the fold increase of binding ability against the Fab form (PD-1(ECD)-hFc融合蛋白 [1]) was 100 fold and the binding result [2] was “binds”.

B2: P2-G12 Fab (Fab, V domains shown)
VH: B1 VH
VL: B1 VL
notes: Fully human Fab from a phage display library, expressed in E. coli HB2151 and purified on Ni-NTA; P2-G12 is the only antibody described; also called PD-1抗体 (Fab形式)
B2: binds (PD-1(ECD)-hFc融合蛋白 [3]).
